Data set [1] can be described thus: LC/MS. The settings on record: glycan lost; control: parental PANC-1.
Data set [2] can be described thus: LIVE/DEAD staining. The following applies: glycan lost; control: parental PANC-1.
Data set [3] is described as follows: Western blot and qPCR. The following applies: glycan lost; control: parental PANC-1. Background: Immunoblotting shows a protein as a band on a membrane.
A short description of data set [4]: soft agar colony assay. The settings on record: glycan lost; control: parental PANC-1.
Data set [5] in a line: low-attachment sphere assay. The following applies: glycan lost; control: parental PANC-1.
Data set [6] in a line: blot. The following applies: glycan lost; control: wild-type RRM1.
The nature of data set [7]: XTT viability, 3-day gemcitabine. The settings on record: glycan lost; control: parental PANC-1.
The nature of data set [8]: nocodazole release, PI flow cytometry. The settings on record: glycan lost; control: parental PANC-1.
The nature of data set [9]: γH2AX, 53BP1, RPA immunofluorescence foci. The following applies: glycan lost; control: parental PANC-1.

B1: ribonucleotide reductase large subunit M1 (RRM1): RRM1-T734A (protein)
parent chain: MHVIKRDGRQERVMFDKITSRIQKLCYGLNMDFVDPAQITMKVIQGLYSGVTTVELDTLAAETAATLTTKHPDYAILAARIAVSNLHKETKKVFSDVMEDLYNYINPHNGKHSPMVAKSTLDIVLANKDRLNSAIIYDRDFSYNYFGFKTLERSYLLKINGKVAERPQHMLMRVSVGIHKEDIDAAIETYNLLSERWFTHASPTLFNAGTNRPQLSSCFLLSMKDDSIEGIYDTLKQCALISKSAGGIGVAVSCIRATGSYIAGTNGNSNGLVPMLRVYNNTARYVDQGGNKRPGAFAIYLEPWHLDIFEFLDLKKNTGKEEQRARDLFFALWIPDLFMKRVETNQDWSLMCPNECPGLDEVWGEEFEKLYASYEKQGRVRKVVKAQQLWYAIIESQTETGTPYMLYKDSCNRKSNQQNLGTIKCSNLCTEIVEYTSKDEVAVCNLASLALNMYVTSEHTYDFKKLAEVTKVVVRNLNKIIDINYYPVPEACLSNKRHRPIGIGVQGLADAFILMRYPFESAEAQLLNKQIFETIYYGALEASCDLAKEQGPYETYEGSPVSKGILQYDMWNVTPTDLWDWKVLKEKIAKYGIRNSLLIAPMPTASTAQILGNNESIEPYTSNIYTRRVLSGEFQIVNPHLLKDLTERGLWHEEMKNQIIACNGSIQSIPEIPDDLKQLYKTVWEISQKTVLKMAAERGAFIDQSQSLNIHIAEPNYGKLTSMHFYGWKQGLKTGMYYLRTRPAANPIQFTLNKEKLKDKEKVSKEEEEKERNTAAMVCSLENRDECLMCGS
For B1, in [1], the “other: cellular NTP pools” value is given as “decreases”. Also, the “other: cell death” value in [2] is on record as “no change”. Moreover, in data set [3], the “other: thymidine phosphorylase (TP) expression” value was “decreases”. Also, in data set [4], the “other: colony formation” value is “decreases”. Further, the “other: sphere formation” value in data set [5] is given as “decreases”. In data set [6], the “other: RRM1 serine/threonine phosphorylation” value is reported as “decreases”. For the same protein, in [7], the “other: gemcitabine sensitivity” value is recorded as “increases”. The “other: S-phase duration” value in [8] is “increases”. Besides, in data set [9], the “other: DNA damage and replication stress foci” value is reported as “increases”.

Source of the values: paper PMC12086086.
